Laboratory results: the Human Domainome abundance scans (Beltran et al. 2025)
± gives the uncertainty stated by the source.

Test: abundance fitness (aPCA) (normalised: wild type 0, dead -1); higher = more abundant; growth selection in yeast, the domain comes from the species named
Settings: Homo sapiens

Substance	abundance fitness
SAFB-like transcription modulator E67N, Q9NWH9	-0.002 ± 0.069
SAFB-like transcription modulator I56L, Q9NWH9	0.002 ± 0.068
SAFB-like transcription modulator I28F, Q9NWH9	-0.417 ± 0.17
BAG family molecular chaperone regulator 3 H42A, O95817	-0.857 ± 0.15
BAG family molecular chaperone regulator 3 T34N, O95817	0.336 ± 0.26
SAFB-like transcription modulator L39I, Q9NWH9	-0.231 ± 0.074
BAG family molecular chaperone regulator 3 R53G, O95817	-0.295 ± 0.09
SAFB-like transcription modulator T42Y, Q9NWH9	0.194 ± 0.11
BAG family molecular chaperone regulator 3 P52G, O95817	-0.389 ± 0.1
SAFB-like transcription modulator P63T, Q9NWH9	-0.053 ± 0.065
BAG family molecular chaperone regulator 3 R19E, O95817	0.208 ± 0.15
SAFB-like transcription modulator P63Y, Q9NWH9	-0.214 ± 0.051
SAFB-like transcription modulator V27K, Q9NWH9	-0.533 ± 0.27
SAFB-like transcription modulator V27G, Q9NWH9	-0.405 ± 0.088
BAG family molecular chaperone regulator 3 R45M, O95817	-0.442 ± 0.2
SAFB-like transcription modulator I66T, Q9NWH9	-0.063 ± 0.12
BAG family molecular chaperone regulator 3 P52L, O95817	-0.741 ± 0.12
BAG family molecular chaperone regulator 3 K29P, O95817	-0.598 ± 0.26
BAG family molecular chaperone regulator 3 G58Q, O95817	0.85 ± 0.19
SAFB-like transcription modulator P63K, Q9NWH9	-0.354 ± 0.074
SAFB-like transcription modulator G19W, Q9NWH9	-0.72 ± 0.35
SAFB-like transcription modulator T23H, Q9NWH9	-0.281 ± 0.034
SAFB-like transcription modulator E59K, Q9NWH9	-0.653 ± 0.13
SAFB-like transcription modulator K53Q, Q9NWH9	-0.159 ± 0.084

Substance	abundance fitness
BAG family molecular chaperone regulator 3 I28C, O95817	-0.375 ± 0.22
SAFB-like transcription modulator L34W, Q9NWH9	-1.01 ± 0.057
SAFB-like transcription modulator I66P, Q9NWH9	-0.274 ± 0.1
BAG family molecular chaperone regulator 3 F38L, O95817	0.326 ± 0.072
SAFB-like transcription modulator D62G, Q9NWH9	-0.534 ± 0.054
SAFB-like transcription modulator D62W, Q9NWH9	-0.66 ± 0.045
BAG family molecular chaperone regulator 3 Q33N, O95817	-0.357 ± 0.29
BAG family molecular chaperone regulator 3 A13C, O95817	-0.603 ± 0.46
BAG family molecular chaperone regulator 3 N43H, O95817	-0.384 ± 0.38
BAG family molecular chaperone regulator 3 K29W, O95817	-0.754 ± 0.29
BAG family molecular chaperone regulator 3 P24W, O95817	-0.659 ± 0.21
SAFB-like transcription modulator P63S, Q9NWH9	-0.17 ± 0.049
SAFB-like transcription modulator I28Q, Q9NWH9	-0.36 ± 0.13
SAFB-like transcription modulator T46G, Q9NWH9	-0.094 ± 0.06
SAFB-like transcription modulator L52G, Q9NWH9	-0.611 ± 0.048
BAG family molecular chaperone regulator 3 G15I, O95817	0.795 ± 0.18
BAG family molecular chaperone regulator 3 F38K, O95817	-0.31 ± 0.088
SAFB-like transcription modulator L25Q, Q9NWH9	-0.181 ± 0.31
SAFB-like transcription modulator D62C, Q9NWH9	-0.198 ± 0.045
SAFB-like transcription modulator D62V, Q9NWH9	-0.397 ± 0.039
BAG family molecular chaperone regulator 3 P32Y, O95817	-0.23 ± 0.38
SAFB-like transcription modulator R37C, Q9NWH9	-0.921 ± 0.052
BAG family molecular chaperone regulator 3 P55K, O95817	-0.094 ± 0.12
BAG family molecular chaperone regulator 3 G17M, O95817	0.25 ± 0.21

Substance	abundance fitness
SAFB-like transcription modulator S50H, Q9NWH9	-0.353 ± 0.47
SAFB-like transcription modulator L30Q, Q9NWH9	-0.959 ± 0.17
BAG family molecular chaperone regulator 3 R19I, O95817	0.367 ± 0.17
SAFB-like transcription modulator L30I, Q9NWH9	-0.129 ± 0.067
SAFB-like transcription modulator S32L, Q9NWH9	-0.024 ± 0.04
SAFB-like transcription modulator L48E, Q9NWH9	-0.478 ± 0.086
SAFB-like transcription modulator G61N, Q9NWH9	-0.208 ± 0.083
SAFB-like transcription modulator R51Y, Q9NWH9	-1.01 ± 0.35
SAFB-like transcription modulator L30E, Q9NWH9	-0.6 ± 0.05
BAG family molecular chaperone regulator 3 D18W, O95817	-0.317 ± 0.16
SAFB-like transcription modulator K35I, Q9NWH9	-0.067 ± 0.037
SAFB-like transcription modulator L30F, Q9NWH9	-0.706 ± 0.055
BAG family molecular chaperone regulator 3 L22Q, O95817	-0.226 ± 0.095
SAFB-like transcription modulator L34P, Q9NWH9	-0.8 ± 0.084
SAFB-like transcription modulator T42S, Q9NWH9	0.071 ± 0.095
BAG family molecular chaperone regulator 3 D20S, O95817	0.15 ± 0.087
BAG family molecular chaperone regulator 3 D18Q, O95817	0.012 ± 0.19
BAG family molecular chaperone regulator 3 H42S, O95817	-0.678 ± 0.25
SAFB-like transcription modulator I28T, Q9NWH9	-0.129 ± 0.12
SAFB-like transcription modulator D24M, Q9NWH9	-0.229 ± 0.036
BAG family molecular chaperone regulator 3 W49P, O95817	-0.72 ± 0.25
SAFB-like transcription modulator V47E, Q9NWH9	0.022 ± 0.068
